Reference: the supplement of paper PMC10724198
± gives the standard deviation of the averaged measurements.

system: Saccharomyces cerevisiae; assay: protein stability index of tFT-peptide fusion (C-terminal peptide) (PSI (0-1 scale)); higher = more stable (slower turnover); conditions: genetic background: das1 deletion; temperature: 37 C
Description: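 MPS profiling in S. cerevisiae of the tFT-X12 degron library: putative degron peptides plus stable controls, 12 aa, fused to the C-terminus of a sfGFP-mCherry timer. Cells are FACS-sorted into 8 mCherry/sfGFP bins and deep-sequenced. PSI runs from 0 (unstable) to 1 (stable). Backgrounds are wild type, das1Δ and doa10Δ at 30 °C, and wild type, das1Δ, cdc34-1 and cdc53-1 at 37 °C; 2-3 technical replicates each.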
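Note: PSI is a weighted mean of sequencing reads over stability bins, variants kept only with over 10 reads, mCherry proximal and sfGFP distal, peptide attached via GGGS linker.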

Going from YPFSLVLGVFAF to YPPLFLLMRGVL, the protein stability index rises from 0.456 ± 0.0094 to 0.712 ± 0.021.

YRHYGVARKKLA and YTQKFTFYGLPA are within error of each other in protein stability index: 0.713 ± 0.028 for the first, 0.727 ± 0.013 for the second.

Going from YVRHDKLILSFC to YVSLPFVVWWFC, the protein stability index rises from 0.5562 ± 0.0027 to 0.591 ± 0.0081.

Going from YWFWLLIGSFSC to YWGFHPCCAFGY, the protein stability index rises from 0.526 ± 0.011 to 0.77 ± 0.023.

With YYQVSQKIQRKQ the protein stability index was 0.726 ± 0.042.

same assay, conditions: genetic background: doa10 deletion; temperature: 30 C

First: YLFFSCIFTFSC
Second: YLFLPGGEVSVH
The protein stability index of the first is lower: 0.189 ± 0.011 for the first, 0.5204 ± 0.0031 for the second.

Going from YLGSPLSLMLVA to YPFSLVLGVFAF, the protein stability index falls from 0.332 ± 0.031 to 0.285 ± 0.01.

Compared with YPPLFLLMRGVL, YRHYGVARKKLA is lower in protein stability index: 0.157 ± 0.011 for the first, 0.081 ± 0.009 for the second.

First: YTQKFTFYGLPA
Second: YVRHDKLILSFC
The protein stability index of the first is higher: 0.618 ± 0.033 for the first, 0.3915 ± 0.002 for the second.

Going from YVSLPFVVWWFC to YWFWLLIGSFSC, the protein stability index rises from 0.1839 ± 0.0011 to 0.36 ± 0.019.

First: YWGFHPCCAFGY
Second: YYQVSQKIQRKQ
The protein stability index of the first is higher: 0.654 ± 0.035 for the first, 0.323 ± 0.0077 for the second.

same assay, conditions: genetic background: wild type; temperature: 30 C

Compared with YLFFSCIFTFSC, YLFLPGGEVSVH is higher in protein stability index: 0.211 ± 0.091 for the first, 0.553 ± 0.019 for the second.

First: YLGSPLSLMLVA
Second: YPFSLVLGVFAF
The protein stability index of the first is higher: 0.355 ± 0.022 for the first, 0.325 ± 0.0062 for the second.

YPPLFLLMRGVL and YRHYGVARKKLA are within error of each other in protein stability index: 0.175 ± 0.034 for the first, 0.134 ± 0.01 for the second.

Compared with YTQKFTFYGLPA, YVRHDKLILSFC is lower in protein stability index: 0.616 ± 0.016 for the first, 0.414 ± 0.019 for the second.

Compared with YVSLPFVVWWFC, YWFWLLIGSFSC is higher in protein stability index: 0.198 ± 0.014 for the first, 0.382 ± 0.024 for the second.

First: YWGFHPCCAFGY
Second: YYQVSQKIQRKQ
The protein stability index of the first is higher: 0.659 ± 0.019 for the first, 0.371 ± 0.018 for the second.

same assay, conditions: genetic background: wild type; temperature: 37 C

First: YLFFSCIFTFSC
Second: YLFLPGGEVSVH
The protein stability index of the first is lower: 0.273 ± 0.018 for the first, 0.6369 ± 0.00098 for the second.

Compared with YLGSPLSLMLVA, YPFSLVLGVFAF is lower in protein stability index: 0.481 ± 0.009 for the first, 0.4104 ± 0.0034 for the second.

Compared with YPPLFLLMRGVL, YRHYGVARKKLA is lower in protein stability index: 0.357 ± 0.016 for the first, 0.127 ± 0.016 for the second.

Compared with YTQKFTFYGLPA, YVRHDKLILSFC is lower in protein stability index: 0.708 ± 0.02 for the first, 0.54 ± 0.011 for the second.

Compared with YVSLPFVVWWFC, YWFWLLIGSFSC is higher in protein stability index: 0.375 ± 0.0063 for the first, 0.504 ± 0.012 for the second.

First: YWGFHPCCAFGY
Second: YYQVSQKIQRKQ
The protein stability index of the first is higher: 0.745 ± 0.051 for the first, 0.584 ± 0.014 for the second.

system: Saccharomyces cerevisiae; assay: as above; conditions: genetic background: wild type; temperature: 30 C

First: YLFFSCIFTFSC
Second: YLFLPGGEVSVH
The protein stability index of the first is lower: 0.316 ± 0.025 for the first, 0.487 ± 0.083 for the second.

First: YLGSPLSLMLVA
Second: YPFSLVLGVFAF
The protein stability index of the first is higher: 0.475 ± 0.032 for the first, 0.405 ± 0.033 for the second.

First: YPPLFLLMRGVL
Second: YRHYGVARKKLA
The protein stability index of the first is higher: 0.258 ± 0.075 for the first, 0.152 ± 0.0056 for the second.

Going from YTQKFTFYGLPA to YVRHDKLILSFC, the protein stability index rises from 0.027 ± 0.023 to 0.489 ± 0.013.

First: YVSLPFVVWWFC
Second: YWFWLLIGSFSC
The protein stability index of the first is lower: 0.309 ± 0.033 for the first, 0.4576 ± 0.0029 for the second.

Compared with YWGFHPCCAFGY, YYQVSQKIQRKQ is lower in protein stability index: 0.711 ± 0.0091 for the first, 0.435 ± 0.065 for the second.
